{
  "source": "patent US10870874B2",
  "about": "“Binding fusion proteins, binding fusion protein-drug conjugates, XTEN-drug conjugates and methods of making and using same” (Amunix Pharmaceuticals, Inc., priority 2010, dated 2020)",
  "key": {"[1]": {"molecular_target": "human CD40 (Homo sapiens, UniProt P25942)", "sequence (P25942 21-193 limits assumed)": "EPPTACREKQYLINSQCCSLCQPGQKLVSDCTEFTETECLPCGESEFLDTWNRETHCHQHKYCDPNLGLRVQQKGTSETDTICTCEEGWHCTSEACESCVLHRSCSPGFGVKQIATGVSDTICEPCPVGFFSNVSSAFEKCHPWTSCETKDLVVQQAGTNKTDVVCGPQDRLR", "test": "CD40 binding ELISA with cleared lysates of aCD40-XTEN", "conditions": "from EC50 of lysate dilution and an estimate concentration of 10 μM in the lysate", "experimental": "Two aCD40-XTEN constructs, AC384 and AC385, were expressed by growing a culture to saturation in 2×YT and then using this culture to inoculate a 500 ml flask of 2×YT. This second flask was grown to an OD600 of between 0.6 and 1.0 at 37° C., transferred to 26° C., and induced with 1 mM IPTG. The induction was left overnight and cell paste harvested by centrifugation the flowing morning. These pellets were stored as EP220 and EP221. Small samples were taken from the pellet, lysed using bugbuster, and clarified using a microcentrifuge. These cleared lysates were the serially diluted by a factor of three in PBST, for using in a binding ELISA. The ELISA was performed as follows: The plates were coated with either 100 ng/well of human CD40-Fc fusion for 1 hour at 37° C., blocked with 3% BSA in PBS for one hour at 37° C., bound by adding the AC384 or AC385 dilution series to the plate and incubating for one hour at room temperature, washed 3 times with PBST, detected with biotinylated anti-XTEN antibody for one hour at room temperature, washed three times with PBST, amplified with streptavidin-HRP for one hour at room temperature, washed three times with PBST, developed with TMB substrate and read at 405 nm using a plate reader. The ELISA values were plotted versus dilution of lysate plotted on a log scale and an EC50 value determined, with nearly identical results (FIG. 27)."}, "[2]": {"test": "In vivo stability of GFP-XTEN in plasma samples after injection", "design": "species or system cynomolgus monkeys", "conditions": "samples up to 7 days after injection", "experimental": "(§1) FIG. 16A-FIG. 16C show an SDS-PAGE gel of samples from a stability study of the fusion protein of XTEN_AE864 fused to the N-terminus of GFP.\n(§2) A fusion protein containing XTEN_AE864 fused to the N-terminus of GFP was incubated in monkey plasma and rat kidney lysate for up to 7 days at 37° C. Samples were withdrawn at time 0, Day 1 and Day 7 and analyzed by SDS PAGE followed by detection using Western analysis and detection with antibodies against GFP as shown in FIG. 16A-FIG. 16C. […] The in vivo stability of the fusion protein was tested in plasma samples wherein the GFP_AE864 was immunoprecipitated and analyzed by SDS PAGE as described above."}, "[3]": {"test": "Stability of XTEN_AE864-GFP incubated in rat kidney lysate", "format": "in vitro ADME", "conditions": "37° C., over 3 days", "experimental": "as §1\nas §2, with “Samples” for “A fusion protein containing XTEN_AE864 fused to the N-terminus of GFP was incubated in monkey plasma and rat kidney lysate for up to 7 days at 37° C. Samples”"}, "[4]": {"test": "Stability of XTEN_AE864-GFP incubated in monkey plasma", "format": "in vitro ADME, cynomolgus monkey", "conditions": "37° C., 7 days", "experimental": "as §1, §2"}, "[5]": {"molecular_target": "T1, human IL6R (Homo sapiens, UniProt P08887)", "T1 sequence (P08887 20-468)": "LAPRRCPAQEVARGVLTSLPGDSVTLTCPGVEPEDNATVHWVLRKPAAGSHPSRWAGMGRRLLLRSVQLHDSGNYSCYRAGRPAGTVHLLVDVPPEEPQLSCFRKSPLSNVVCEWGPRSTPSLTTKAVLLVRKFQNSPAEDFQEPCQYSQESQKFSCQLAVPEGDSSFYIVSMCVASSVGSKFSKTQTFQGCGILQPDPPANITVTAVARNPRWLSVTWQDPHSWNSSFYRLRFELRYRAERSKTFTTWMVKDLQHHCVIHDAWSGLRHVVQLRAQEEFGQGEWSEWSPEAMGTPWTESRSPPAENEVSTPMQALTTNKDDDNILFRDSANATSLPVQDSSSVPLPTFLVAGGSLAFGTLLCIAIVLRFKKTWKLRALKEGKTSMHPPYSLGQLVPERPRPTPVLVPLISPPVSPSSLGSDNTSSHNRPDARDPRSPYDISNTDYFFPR", "test": "IL6R binding ELISA of aIL6R-XTEN", "conditions": "100 ng/well human IL6R", "experimental": "E. coli from a single colony of AC342 was grown to saturation in 2×YT media. 10 mL of this saturated overnight culture was used to inoculate a 500 ml of 2×YT media and this culture was grown to an OD600 between 0.4 and 0.5 at 37° C., transferred to 26° C. and induced with 1 mM IPTG. The culture was then grown overnight (15-17 hours) and harvested by centrifugation at 10,000 rpm in a Sorvall SLA-3000 rotor. The pellets were stored until use at −80° C. Cell paste was resuspended in 25 ml of lysis buffer (20 mM sodium acetate, 50 mM sodium chloride, pH 4.5), lysed by sonication, and clarified by spinning at 10,000 rpm at 4° C. in a Sorvall SS34 rotor. The samples were further acidified by the addition of acetic acid. […] IL6R binding was assessed in an ELISA as follows: the plates were coated with either 100 ng/well of human IL6R for 1 hour at 37° C., blocked with 3% BSA in PBS for one hour at 37° C., bound by adding the AC342 dilution series to the plate and incubating for one hour at room temperature, washed 3 times with PBST, detected with biotinylated anti-XTEN antibody for one hour at room temperature, washed three times with PBST, amplified with streptavidin-HRP for one hour at room temperature, washed three times with PBST, developed with TMB substrate and read at 405 nm using a plate reader."}},
  "data": [
    {"molecule": "AC384: anti-CD40-XTEN_AE864 scFv binding fusion protein (protein) QQKPGQAPRLLIYYASHSISGIPARFSGSGSGTDFTLTISSLEPEDFAVYYCQHGHSYPWTFGGGTKVEIKTGSGEGSEGEGGGEGSEGEGSGEGGEGEGSGTQVQLVQSGSELKKPGASVKVSCKASGYAFTTTGMQWVRQAPGQGLEWMGWINTHSGVPKYVEDFKGRFVFSLDTSVSTAYLQISSLKAEDTAVYYCARSGNGNYDLAYFKYWGQGTLVTVSSGGSPAGSPTSTEEGTSESATPESGPGTSTEPSEGSAPGSPAGSPTSTEEGTSTEPSEGSAPGTSTEPSEGSAPGTSESATPESGPGSEPATSGSETPGSEPATSGSETPGSPAGSP", "values": [
      {"measurement": "Kd", "setting": "[1]", "result": "~50", "unit": "nM"}
    ]},
    {"molecule": "AC385: anti-CD40-XTEN_AE864 scFv binding fusion protein (protein) QQKPGQAPRLLIYYASHSISGIPARFSGSGSGTDFTLTISSLEPEDFAVYYCQHGHSYPWTFGGGTKVEIKTGSGEGSEGEGGGEGSEGEGSGEGGEGEGSGTQVQLVQSGSELKKPGASVKVSCKASGYAFTTTGMQWVRQAPGQGLEWMGWINTHSGVPKYVEDFKGRFVFSLDTSVSTAYLQISSLKAEDTAVYYCARSGNGNYDLAYFKYWGQGTLVTVSSGGSPAGSPTSTEEGTSESATPESGPGTSTEPSEGSAPGSPAGSPTSTEEGTSTEPSEGSAPGTSTEPSEGSAPGTSESATPESGPGSEPATSGSETPGSEPATSGSETPGSPAGSPT", "values": [
      {"measurement": "Kd", "setting": "[1]", "result": "~50", "unit": "nM"}
    ]},
    {"molecule": "XTEN_AE864: fusion protein containing XTEN_AE864 fused to the N-terminus of GFP (protein) MAEPAGSPTSTEEGTPGSGTASSSPGSSTPSGATGSPGASPGTSSTGSPGGASASCAPSTGGGSPAGSPTSTEEGTSESATPESGPGTSTEPSEGSAPGSPAGSPTSTEEGTSTEPSEGSAPGTSTEPSEGSAPGTSESATPESGPGSEPATSGSETPGSEPATSGSETPGSPAGSPTSTEEGTSESATPESGPGTSTEPSEGSAPGTSTEPSEGSAPGSPAGSPTSTEEGTSTEPSEGSAPGTSTEPSEGSAPGTSESATPESGPGTSTEPSEGSAPGTSESATPESGPGSEPATSGSETPGTSTEPSEGSAPGTSTEPSEGSAPGTSESATPESGPGTSESATPESGPGSPAGSPTSTEEGTSESATPESGPGSEPATSGSETPGTSESATPESGPGTSTEPSEGSAPGTSTEPSEGSAPGTSTEPSEGSAPGTSTEPSEGSAPGTSTEPSEGSAPGTSTEPSEGSAPGSPAGSPTSTEEGTSTEPSEGSAPGTSESATPESGPGSEPATSGSETPGTSESATPESGPGSEPATSGSETPGTSESATPESGPGTSTEPSEGSAPGTSESATPESGPGSPAGSPTSTEEGSPAGSPTSTEEGSPAGSPTSTEEGTSESATPESGPGTSTEPSEGSAPGGASASCAPSTGGGSEPATSGSETPGTSESATPESGPGSEPATSGSETPGSPAGSPTSTEEGTSTEPSEGSAPGSEPATSGSETPGSEPATSGSETPGSEPATSGSETPGTSTEPSEGSAPGTSESATPESGPGSEPATSGSETPGTSTEPSEGSAPG", "values": [
      {"measurement": "degradation in vivo", "setting": "[2]", "result": "very few signs of degradation"},
      {"measurement": "degradation in rat kidney lysate", "setting": "[3]", "result": "rapidly degraded"},
      {"measurement": "degradation in plasma", "setting": "[4]", "result": "negligible signs of degradation"}
    ]},
    {"molecule": "AC342: aIL6R-XTEN binding fusion protein construct (protein) YQQKPGKAPKLLIYYTSRLHSGVPSRFSGSGSGTDFTFTISSLQPEDIATYYCQQGNTLPYTFGQGTKVEIKTGSGEGSEGEGGGEGSEGEGSGEGGEGEGSGSQVQLQESGPGLVRPSQTLSLTCTVSGYSITSDHAWSWVRQPPGRGLEWIGYISYSGITTYNPSLKSRVTMLRDTSKNQFSLRLSSVTAADTAVYYCARSLARTTAMDYWGQGSLVTVSSGSPGSPAGSPTSTEEGTSESATPESGPGTSTEPSEGSAPGSPAGSPTSTEEGTSTEPSEGSAPGTSTEPSEGSAPGTSESATPESGPGSEPATSGSETPGSEPATSGSETPGSPAGSPT", "values": [
      {"measurement": "EC50", "setting": "[5]", "result": 5, "unit": "nM"}
    ]}
  ]
}
